Here are results for 5 substances from article PMC6113430.

Some results are limits rather than exact numbers.

Assay [1] concerns the target human PD‐L1 (hPD‐L1), soluble, biotinylated (human) (UniProt Q9NZQ7). Description: SPR. (In general: SPR reads the build-up and loss of mass on a sensor chip optically.)
Assay [2] deals with human PD‐L2 (hPD‐L2), soluble (human) (UniProt Q9BQ51). In words: SPR.
Assay [3] has as its target human PD‐L2 on mature dendritic cells (human) (UniProt Q9BQ51). In words: flow cytometry on cells.
Assay [4] deals with human PD‐L1 on the surface of tumor cells (human) (UniProt Q9NZQ7). Description: flow cytometry on cells.

As for “hPD‐1 A132I point mutant (domain or fragment)”, the Kd (usually the concentration at which binding is half-saturated) in assay [1] was found to be 9.9 nM.

For “L5B7, high‐affinity PD‐1 variant (G124S, K131Y, A132I) (designed binder)”, in assay [1], the Kd was found to be 0.687 nM and the koff – broadly, the rate constant with which the complex falls apart – was 0.002 s⁻¹. Moreover, in assay [2], the Kd came to 13.7 nM, the T1/2 was 78.1 s and the koff turned out to be 0.0128 s⁻¹. The percent reduction of the MFI of anti-PD-L2 Ab (M1H18) at 1.0 × 10^-5 mol/L L5B7 in assay [3] was greater than 40%. In addition, the EC50 (usually the midpoint of the concentration-response curve) in assay [4] turned out to be 2.9 nM.

Consider “soluble human PD‐1 (hPD‐1) (domain or fragment)”, for which the Kd in assay [1] was found to be 2650 nM; in assay [2], 1050 nM. Moreover, in assay [2], the T1/2 turned out to be 2.68 s. For the same substance, the EC50 in assay [4] is 4860 nM.

In assay [1], “hPD‐1 with the combined mutation of G124V and A132I (domain or fragment)” showed a Kd of 0.97 nM.

In assay [1], “L4C11, PD‐1 variant with a single‐site mutation from glycine to valine (G124V) (designed binder)” displayed a Kd of 93.7 nM, a T1/2 of 8.25 s and a koff of 0.121 s⁻¹.
